Columns and labels:
Assay in all cases: cell-based or functional assay
[1] = target: human β2 adrenergic receptor (human, UniProt P07550 1-413)
human 5HT7 receptor = human 5HT7 receptor (human, UniProt P34969 1-479)
[2] = target: T1, human dopamine D1 receptor (human, UniProt P21728 1-446)
human 5HT4 receptor = human 5HT4 receptor (human, UniProt Q13639 1-388)
[3] = target: human dopamine D5 receptor (human, UniProt P21918 1-477)
human GLP-1 receptor = human GLP-1 receptor (human, UniProt P43220 24-463)
human 5HT6 receptor = human 5HT6 receptor (human, UniProt P50406 1-440)
human 5HT6 receptor, sequence (P50406 whole entry): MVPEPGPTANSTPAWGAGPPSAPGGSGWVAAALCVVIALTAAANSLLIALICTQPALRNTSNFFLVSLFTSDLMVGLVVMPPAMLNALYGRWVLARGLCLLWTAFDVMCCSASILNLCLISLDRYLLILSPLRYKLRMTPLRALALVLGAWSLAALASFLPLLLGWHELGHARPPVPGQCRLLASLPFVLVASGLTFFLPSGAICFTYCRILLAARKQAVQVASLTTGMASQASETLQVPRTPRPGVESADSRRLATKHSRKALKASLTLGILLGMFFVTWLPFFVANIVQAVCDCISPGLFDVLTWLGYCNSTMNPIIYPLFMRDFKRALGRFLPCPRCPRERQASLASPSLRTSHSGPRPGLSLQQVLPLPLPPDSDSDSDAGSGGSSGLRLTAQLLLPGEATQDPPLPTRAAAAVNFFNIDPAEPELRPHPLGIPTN

[4] = target: T1, human dopamine D1 receptor; remark: listed apart in the source
[5] = target: T1, human dopamine D1 receptor; remark: listed apart in the source

human dopamine D5 receptor, sequence (P21918 whole entry): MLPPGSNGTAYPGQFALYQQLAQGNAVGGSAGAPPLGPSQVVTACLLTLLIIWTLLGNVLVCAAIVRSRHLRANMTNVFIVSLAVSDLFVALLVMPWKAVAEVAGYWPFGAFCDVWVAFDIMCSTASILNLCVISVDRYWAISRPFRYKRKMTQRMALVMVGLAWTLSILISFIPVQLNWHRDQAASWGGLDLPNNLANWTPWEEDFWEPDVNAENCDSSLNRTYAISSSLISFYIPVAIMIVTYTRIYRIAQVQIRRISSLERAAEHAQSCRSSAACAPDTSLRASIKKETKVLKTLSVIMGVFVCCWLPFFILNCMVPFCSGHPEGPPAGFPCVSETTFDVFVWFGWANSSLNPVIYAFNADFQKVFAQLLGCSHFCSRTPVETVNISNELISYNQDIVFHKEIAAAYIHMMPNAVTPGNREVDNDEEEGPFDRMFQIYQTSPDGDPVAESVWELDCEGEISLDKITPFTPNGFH
T1 sequence (P21728 whole entry): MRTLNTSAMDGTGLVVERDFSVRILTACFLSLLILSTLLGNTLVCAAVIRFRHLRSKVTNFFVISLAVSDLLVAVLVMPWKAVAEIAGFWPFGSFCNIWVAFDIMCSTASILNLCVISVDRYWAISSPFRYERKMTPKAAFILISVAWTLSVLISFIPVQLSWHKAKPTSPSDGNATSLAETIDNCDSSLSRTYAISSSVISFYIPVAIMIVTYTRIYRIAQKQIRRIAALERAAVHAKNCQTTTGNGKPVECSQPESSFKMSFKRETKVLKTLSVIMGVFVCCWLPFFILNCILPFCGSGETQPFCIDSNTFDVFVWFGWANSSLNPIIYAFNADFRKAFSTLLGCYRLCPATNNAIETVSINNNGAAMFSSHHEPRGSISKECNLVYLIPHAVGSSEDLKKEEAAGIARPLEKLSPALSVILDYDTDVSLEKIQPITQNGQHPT
human 5HT7 receptor, sequence (P34969 whole entry): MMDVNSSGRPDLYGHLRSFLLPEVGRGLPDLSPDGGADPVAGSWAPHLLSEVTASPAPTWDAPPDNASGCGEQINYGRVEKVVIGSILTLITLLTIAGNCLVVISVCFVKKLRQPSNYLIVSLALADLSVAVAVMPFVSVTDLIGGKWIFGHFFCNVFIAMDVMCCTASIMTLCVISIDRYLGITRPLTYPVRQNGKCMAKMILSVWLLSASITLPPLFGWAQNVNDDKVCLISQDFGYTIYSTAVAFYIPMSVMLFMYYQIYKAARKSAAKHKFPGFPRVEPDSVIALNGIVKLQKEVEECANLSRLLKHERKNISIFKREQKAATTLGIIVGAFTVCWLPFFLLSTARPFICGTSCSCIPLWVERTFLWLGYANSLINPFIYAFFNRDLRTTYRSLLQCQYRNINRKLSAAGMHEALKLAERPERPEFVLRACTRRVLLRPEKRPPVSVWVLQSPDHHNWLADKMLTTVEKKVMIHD
human 5HT4 receptor, sequence (Q13639 whole entry): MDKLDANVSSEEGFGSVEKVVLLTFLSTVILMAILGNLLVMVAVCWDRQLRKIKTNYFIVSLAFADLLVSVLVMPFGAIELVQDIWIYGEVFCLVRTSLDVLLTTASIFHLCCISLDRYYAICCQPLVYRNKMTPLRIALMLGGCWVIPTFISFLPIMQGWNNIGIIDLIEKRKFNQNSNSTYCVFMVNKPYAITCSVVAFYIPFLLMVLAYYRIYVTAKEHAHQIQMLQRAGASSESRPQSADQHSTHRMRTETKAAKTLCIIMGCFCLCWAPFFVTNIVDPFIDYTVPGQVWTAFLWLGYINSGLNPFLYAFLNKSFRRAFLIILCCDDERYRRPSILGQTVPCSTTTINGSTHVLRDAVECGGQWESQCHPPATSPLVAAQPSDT

Row | Binder | max Ca2+ signal, COS-7, FLIPR; agonist NE [1] | max Ca2+ signal, COS-7, FLIPR; agonist 5HT (human 5HT7 receptor) | max Ca2+ signal, COS-7, FLIPR; agonist DA [2] | max Ca2+ signal, COS-7, FLIPR; agonist 5HT (human 5HT4 receptor) | max Ca2+ signal, COS-7, FLIPR; agonist DA [3] | max Ca2+ signal, COS-7, FLIPR; agonist GLP-1 (human GLP-1 receptor) | max Ca2+ signal, COS-7, FLIPR; agonist 5HT (human 5HT6 receptor) | max Ca2+ signal, COS-7, FLIPR; 100 µM dopamine [4] | max Ca2+ signal, COS-7, FLIPR; agonist dopamine; fold over hGαq/s9 [5]
1 | Human Gαq/s5 (other) MTLESIMACCLSEEAKEARRINDEIERQLRRDKRDARRELKLLLLGTGESGKSTFIKQMRIIHGSGYSDEDKRGFTKLVYQNIFTAMQAMIRAMDTLKIPYKYEHNKAHAQLVREVDVEKVSAFENPYVDAIKSLWNDPGIQECYDRRREYQLSDSTKYYLNDLDRVADPSYLPTQQDVLRVRVPTTGIIEYPFDLQSVIFRMVDVGGQRSERRKWIHCFENVTSIMFLVALSEYDQVLVESDNENRMEESKALFRTIITYPWFQNSSVILFLNKKDLLEEKIMYSHLVDYFPEYDGPQRDAQAAREFILKMFVDLNPDSDKIIYSHFTCATDTENIRFVFAAVKDTILQLNLKQYELL | 43 fluorescence units | 0 fluorescence units | 0 fluorescence units | 1710 fluorescence units | 0 fluorescence units | 189 fluorescence units | 98 fluorescence units |  | 
2 | Human Gαq/s9 (other) MTLESIMACCLSEEAKEARRINDEIERQLRRDKRDARRELKLLLLGTGESGKSTFIKQMRIIHGSGYSDEDKRGFTKLVYQNIFTAMQAMIRAMDTLKIPYKYEHNKAHAQLVREVDVEKVSAFENPYVDAIKSLWNDPGIQECYDRRREYQLSDSTKYYLNDLDRVADPSYLPTQQDVLRVRVPTTGIIEYPFDLQSVIFRMVDVGGQRSERRKWIHCFENVTSIMFLVALSEYDQVLVESDNENRMEESKALFRTIITYPWFQNSSVILFLNKKDLLEEKIMYSHLVDYFPEYDGPQRDAQAAREFILKMFVDLNPDSDKIIYSHFTCATDTENIRFVFAAVKDTILQMHLRQYELL | 1440 fluorescence units | 0 fluorescence units | 5690 fluorescence units | 2310 fluorescence units | 745 fluorescence units | 4200 fluorescence units | 999 fluorescence units |  | 
3 | Human Gαq/z5 (identical to Accession number L76256) (other) MTLESIMACCLSEEAKEARRINDEIERQLRRDKRDARRELKLLLLGTGESGKSTFIKQMRIIHGSGYSDEDKRGFTKLVYQNIFTAMQAMIRAMDTLKIPYKYEHNKAHAQLVREVDVEKVSAFENPYVDAIKSLWNDPGIQECYDRRREYQLSDSTKYYLNDLDRVADPAYLPTQQDVLRVRVPTTGIIEYPFDLQSVIFRMVDVGGQRSERRKWIHCFENVTSIMFLVALSEYDQVLVESDNENRMEESKALFRTIITYPWFQNSSVILFLNKKDLLEEKIMYSHLVDYFPEYDGPQRDAQAAREFILKMFVDLNPDSDKIIYSHFTCATDTENIRFVFAAVKDTILQLNLKYIGLC |  |  |  |  |  |  |  | 0 fluorescence units | 
4 | D. melanogaster Gαq/z5 (other) MECCLSEEAKEQKRINQEIEKQLRRDKRDARRELKLLLLGTGESGKSTFIKQMRIIHGSGYSDEDKRGYIKLVFQNIFMAMQSMIKAMDMLKISYGQGEHSELADLVMSIDYETVTTFEDPYLNAIKTLWDDAGIQECYDRRREYQLTDSAKYYLKDLDRVAQPAYLPTEQDILRVRVPTTGIIEYPFDLEEIRFRMVDVGGQRSERRKWIHCFENVTSIIFLVALSEYDQILFESDNENRMEESKALFRTIITYPWFQNSSVILFLNKKDLLEEKIMYSHLVDYFPEYDGPQRDAITAREFILRMFVDLNPDSEKIIYSHFTCATDTENIRFVFAAVKDTILQSNLKYIGLC |  |  |  |  |  |  |  | 2150 fluorescence units | 
5 | C. elegans Gαq/s9 (other) MACCLSEEAREQKRINQEIEKQLQRDKRNARRELKLLLLGTGESGKSTFIKQMRIIHGQGYSEEDKRAHIRLVYQNVFMAIQSMIRAMDTLDIKFGNESEELQEKAAVVREVDFESVTSFEEPYVSYIKELWEDSGIQECYDRRREYQLTDSAKYYLSDLRRLAVPDYLPTEQDILRVRVPTTGIIEYPFDLEQIIFRMVDVGGQRSERRKWIHCFENVTSIMFLVALSEYDQVLVECDNENRMEESKALFRTIITYPWFTNSSVILFLNKKDLLEEKILYSHLADYFPEYDGPPRDPIAAREFILKMFVDLNPDADKIIYSHFTCATDTENIRFVFAAVKDTILQMHLRQYELL | 3110 fluorescence units | 387 fluorescence units | 8690 fluorescence units | 1700 fluorescence units | 1870 fluorescence units | 2460 fluorescence units | 1640 fluorescence units |  | 1.5 fold
6 | C. elegans Gαq/s21 (other) MACCLSEEAREQKRINQEIEKQLQRDKRNARRELKLLLLGTGESGKSTFIKQMRIIHGQGYSEEDKRAHIRLVYQNVFMAIQSMIRAMDTLDIKFGNESEELQEKAAVVREVDFESVTSFEEPYVSYIKELWEDSGIQECYDRRREYQLTDSAKYYLSDLRRLAVPDYLPTEQDILRVRVPTTGIIEYPFDLEQIIFRMVDVGGQRSERRKWIHCFENVTSIMFLVALSEYDQVLVECDNENRMEESKALFRTIITYPWFTNSSVILFLNKKDLLEEKILYSHLADYFPEYDGPPRDPIAAREFILKMFVDLNPDADKIIYSHFTCATDTENIRRVFNDCRDIIQRMHLRQYELL | 3510 fluorescence units | 206 fluorescence units | 9430 fluorescence units | 1730 fluorescence units | 3380 fluorescence units | 3120 fluorescence units | 1010 fluorescence units |  | 
